Results from PMC11058771.

Molecular target: mouse teneurin-3 A1B1 complete extracellular domain (ECD, residues 342-2715) (mouse) (UniProt Q9WTS6)
Experiment: SEC-MALS; purified ECD, 0.5 mg/mL in 20 mM HEPES pH 7.8, 150 mM NaCl, 2 mM CaCl2, Superose6 Increase 10/300 GL; also SDS-PAGE with or without beta-mercaptoethanol; covalent (disulphide-linked) dimer

stoichiometry N: 2
Substance: mouse teneurin-3 A1B1 complete extracellular domain (ECD, residues 342-2715), Q9WTS6-1 342-2715
